The values below come from patent US20070059820A1.

Assay [1] concerns the target recombinant Flk-1 (UniProt P35918). Description: ELISA on coated recombinant Flk-1, anti-rat IgG1 HRP; antibody at 0 ng/ml (background).
Assay [2] shares this target. Description: competition ELISA: antibody mixed with Flk-1, added to coated human VEGF, anti-Flk-1-HRP; antibody at 37 ng/ml. A general note: ELISA stands for enzyme-linked immunosorbent assay.
Assay [3] has the same target. Description: competition ELISA: antibody mixed with Flk-1, added to coated human VEGF, anti-Flk-1-HRP; antibody at 0 ng/ml (no inhibitor).
For assay [4] the target is unchanged. Description: ELISA on coated recombinant Flk-1, anti-rat IgG1 HRP; antibody at 12 ng/ml.
Assay [5] shares this target. Description: ELISA on coated recombinant Flk-1, anti-rat IgG1 HRP; antibody at 37 ng/ml.
Assay [6] has the same target. Description: ELISA on coated recombinant Flk-1, anti-rat IgG1 HRP; antibody at 4 ng/ml.
Assay [7] has the same target. Description: competition ELISA: antibody mixed with Flk-1, added to coated human VEGF, anti-Flk-1-HRP; antibody at 333 ng/ml.
Assay [8] has the same target. Description: ELISA on coated recombinant Flk-1, anti-rat IgG1 HRP; antibody at 111 ng/ml.
Assay [9] has the same target. Description: ELISA on coated recombinant Flk-1, anti-rat IgG1 HRP; antibody at 333 ng/ml.
The target is the same in assay [10]. Description: competition ELISA: antibody mixed with Flk-1, added to coated human VEGF, anti-Flk-1-HRP; antibody at 4 ng/ml.
For assay [11] the target is unchanged. Description: competition ELISA: antibody mixed with Flk-1, added to coated human VEGF, anti-Flk-1-HRP; antibody at 12 ng/ml.
For assay [12] the target is unchanged. Description: competition ELISA: antibody mixed with Flk-1, added to coated human VEGF, anti-Flk-1-HRP; antibody at 111 ng/ml.
The target is the same in assay [13]. Description: ELISA on coated recombinant Flk-1, anti-rat IgG1 HRP; antibody at 1000 ng/ml.
Assay [14] shares this target. Description: competition ELISA: antibody mixed with Flk-1, added to coated human VEGF, anti-Flk-1-HRP; antibody at 1000 ng/ml.

Chain of UniProt P35918 (P35918 20-762 limits assumed): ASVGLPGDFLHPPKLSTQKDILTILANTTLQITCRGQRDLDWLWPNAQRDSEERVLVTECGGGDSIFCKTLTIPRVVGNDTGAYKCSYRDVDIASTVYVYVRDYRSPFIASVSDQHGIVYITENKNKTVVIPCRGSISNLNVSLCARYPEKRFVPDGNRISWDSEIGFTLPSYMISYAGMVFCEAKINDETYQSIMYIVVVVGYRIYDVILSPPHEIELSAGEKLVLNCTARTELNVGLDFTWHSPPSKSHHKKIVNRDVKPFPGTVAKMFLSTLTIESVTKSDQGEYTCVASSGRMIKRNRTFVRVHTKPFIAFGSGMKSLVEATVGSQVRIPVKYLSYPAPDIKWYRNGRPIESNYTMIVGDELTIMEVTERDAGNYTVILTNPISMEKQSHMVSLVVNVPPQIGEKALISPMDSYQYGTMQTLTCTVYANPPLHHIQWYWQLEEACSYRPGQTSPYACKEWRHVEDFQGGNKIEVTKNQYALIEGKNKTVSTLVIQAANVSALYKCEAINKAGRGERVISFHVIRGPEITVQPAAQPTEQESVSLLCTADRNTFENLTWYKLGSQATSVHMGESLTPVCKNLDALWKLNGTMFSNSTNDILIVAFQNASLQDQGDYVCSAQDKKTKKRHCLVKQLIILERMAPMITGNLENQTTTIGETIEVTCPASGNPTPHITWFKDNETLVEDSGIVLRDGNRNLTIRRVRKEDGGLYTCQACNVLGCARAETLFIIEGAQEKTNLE

DC101 antibody produced by a hybridoma: the ELISA signal (name and unit not given) came to 0.117 with recombinant Flk-1 [1]; 0.403 with recombinant Flk-1 [4]; 0.585 with recombinant Flk-1 [5]; 0.312 with recombinant Flk-1 [6]; 0.724 with recombinant Flk-1 [8]; 0.894 in the assay with recombinant Flk-1 [9]. Also, in the assay with recombinant Flk-1 [13], the ELISA signal (name and unit not given) was 1.12. The signal of Flk-1 bound to coated VEGF (name and unit not given) worked out at 0.834 with recombinant Flk-1 [2]; 1.1 in the assay with recombinant Flk-1 [3]; 0.357 in the assay with recombinant Flk-1 [7]; 0.992 in the assay with recombinant Flk-1 [10]; 0.931 with recombinant Flk-1 [11]; 0.635 with recombinant Flk-1 [12]. Moreover, in the assay with recombinant Flk-1 [14], the signal of Flk-1 bound to coated VEGF (name and unit not given) is 0.193.

B1: DC101 antibody expressed from CHO-S cells infected with Lenti-DC101-furin/2A14 (clone 7x-24) (antibody, from another filing, V domains shown)
VH: EVQLVETGGGLVQPGNSLKLSCATSGFIFSTTWMNWIRQTPGKRLEWLAQIEDKSNNYFISYSESVKGRFTISRDDSKSSVYLQMNNLKEEDTAIYYCSWKYRSNYYFDYWGQGVMVTVSS
VL: DIVLTQSPALAVSLEQRATISCKTSQNVDYYGISYLHWYQQKPGQQPKLLIYEGSNLASGIPARFSGSGSGTDFTLTIDPVEADDIVTYYCQQSKDYPYTFGAGTKLELKR
For B1, the ELISA signal (name and unit not given) in the assay with recombinant Flk-1 [1] was determined as 0.129; in the assay with recombinant Flk-1 [4], 0.412; with recombinant Flk-1 [5], 0.486; in the assay with recombinant Flk-1 [6] it was 0.274; with recombinant Flk-1 [8] it was 0.616; with recombinant Flk-1 [9], 0.993. Moreover, the ELISA signal (name and unit not given) in the assay with recombinant Flk-1 [13] turned out to be 1.14. The signal of Flk-1 bound to coated VEGF (name and unit not given) in the assay with recombinant Flk-1 [2] was determined as 0.826; with recombinant Flk-1 [3], 1.07; in the assay with recombinant Flk-1 [7], 0.237; with recombinant Flk-1 [10], 1.04; with recombinant Flk-1 [11] it was 0.945; with recombinant Flk-1 [12], 0.43. The signal of Flk-1 bound to coated VEGF (name and unit not given) in the assay with recombinant Flk-1 [14] was 0.184.
